Results as given in patent US20230265183A1 (MABWELL SHANGHAI BIOSCIENCE, published 2023).
Numbering of substitutions follows the chain as printed. Each block holds one binder with its values, some of them ahead of it.

Key:
human Nectin-4 [1] = target: T1, human Nectin-4 (human, UniProt Q96NY8 32-510); experiment: cell-based or functional assay
T1 sequence (looked up): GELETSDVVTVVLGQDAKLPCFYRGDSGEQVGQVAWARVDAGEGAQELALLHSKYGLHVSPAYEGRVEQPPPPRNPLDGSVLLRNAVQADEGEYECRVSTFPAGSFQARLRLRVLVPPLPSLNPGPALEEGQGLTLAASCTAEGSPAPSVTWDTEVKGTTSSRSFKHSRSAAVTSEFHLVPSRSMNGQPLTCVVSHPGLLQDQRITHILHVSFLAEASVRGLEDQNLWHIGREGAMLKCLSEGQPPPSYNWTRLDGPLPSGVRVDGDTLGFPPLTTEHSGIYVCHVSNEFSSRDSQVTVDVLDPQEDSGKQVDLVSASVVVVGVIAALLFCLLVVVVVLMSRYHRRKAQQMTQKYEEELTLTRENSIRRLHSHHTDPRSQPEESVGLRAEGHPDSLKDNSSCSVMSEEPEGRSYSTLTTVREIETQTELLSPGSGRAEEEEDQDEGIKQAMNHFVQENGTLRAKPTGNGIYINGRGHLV

human Nectin-4 [2] = target: T1, human Nectin-4; experiment: FACS on BT474 cells
Method: (§1) The solutions of different concentrations were added to 384-well plates, 10 µl per well.
(§2) BT474 cells (breast cancer cells) expressing Nectin-4 on the cell surface were collected by centrifugation at 100 g at room temperature for 5 minutes, and then the cells were washed with PBS containing 0.5% BSA once and were centrifuged at 100 g at room temperature for 5 minutes. […] After incubation at 4° C. for 1 hour, fluorescently labeled goat anti-human IgG secondary antibody was added. After continued incubation at 4° C. for 1 hour, mean fluorescence readings of the cell populations were analyzed by a flow cytometer.

human Nectin-4 [3] = target: T1, human Nectin-4; experiment: cell-based or functional assay; remark: listed apart in the source
human Nectin-4 [4] = target: T1, human Nectin-4; experiment: FACS on BT474 cells; remark: listed apart in the source
Method: as §1, §2

[5] = target: T2, human Nectin-4(C-6His), Novoprotein Cat# CJ19 (human, UniProt Q96NY8 32-349); experiment: ELISA, plate coated with 1 µg/ml human Nectin-4(C-6His), HRP-labelled secondary antibody, absorbance at 450 nm
T2 construct: Bought protein; also called recombinant human Nectin4 protein; antigen Nectin-4
T2 sequence: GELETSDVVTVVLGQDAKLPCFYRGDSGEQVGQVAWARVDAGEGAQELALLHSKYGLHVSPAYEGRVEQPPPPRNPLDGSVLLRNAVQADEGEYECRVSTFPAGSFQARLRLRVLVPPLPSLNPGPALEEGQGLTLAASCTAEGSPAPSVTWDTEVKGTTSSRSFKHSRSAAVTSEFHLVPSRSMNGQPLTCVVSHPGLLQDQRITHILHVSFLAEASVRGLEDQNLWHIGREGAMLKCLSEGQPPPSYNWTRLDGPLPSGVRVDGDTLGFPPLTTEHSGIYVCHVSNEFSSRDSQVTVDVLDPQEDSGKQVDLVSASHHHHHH
Method: (§3) Plates were coated with 1 µg/ml of the antigens and incubated at 4° C. overnight; next, antibodies serially diluted were added into the plates. Finally, the HRP-labeled secondary antibody was added, and absorbance at 450 nm was detected.

Cyno Nectin4 = target: T3, Cyno Nectin4 (Cyno, UniProt Q96NY8 32-510 (human entry)); experiment: FACS on HEK-cynoNectin4 cells
T3 construct: Expressed on HEK293 cells (HEK-cynoNectin4)
T3 chain: T1 sequence (looked up) with V39A, I230V, A437T

human Nectin-4 [6] = target: T1, human Nectin-4; experiment: FACS on CHO-huNectin4 S8 cells
[7] = target: T4, human Nectin-1(C-6His), Novoprotein Cat# C492 (human, UniProt Q15223 31-334, limits assumed); experiment: ELISA, plate coated with 1 µg/ml human Nectin-1(C-6His), absorbance at 450 nm. The text names only a goat anti-rabbit HRP secondary antibody
T4 sequence: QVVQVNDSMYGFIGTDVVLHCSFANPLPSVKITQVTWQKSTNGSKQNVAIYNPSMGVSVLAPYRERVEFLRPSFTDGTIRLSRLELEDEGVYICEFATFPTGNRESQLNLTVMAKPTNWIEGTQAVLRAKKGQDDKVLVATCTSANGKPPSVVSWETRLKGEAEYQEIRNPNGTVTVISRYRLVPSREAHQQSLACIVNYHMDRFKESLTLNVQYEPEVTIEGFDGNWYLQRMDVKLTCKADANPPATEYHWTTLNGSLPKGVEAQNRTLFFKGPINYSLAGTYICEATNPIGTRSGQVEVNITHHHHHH
Method: as §3

[8] = target: T5, human Nectin-2(C-6His), Novoprotein Cat# C440 (human, UniProt Q92692 32-360, limits assumed); experiment: ELISA, plate coated with 1 µg/ml human Nectin-2(C-6His), absorbance at 450 nm. The text names only a goat anti-rabbit HRP secondary antibody
T5 sequence: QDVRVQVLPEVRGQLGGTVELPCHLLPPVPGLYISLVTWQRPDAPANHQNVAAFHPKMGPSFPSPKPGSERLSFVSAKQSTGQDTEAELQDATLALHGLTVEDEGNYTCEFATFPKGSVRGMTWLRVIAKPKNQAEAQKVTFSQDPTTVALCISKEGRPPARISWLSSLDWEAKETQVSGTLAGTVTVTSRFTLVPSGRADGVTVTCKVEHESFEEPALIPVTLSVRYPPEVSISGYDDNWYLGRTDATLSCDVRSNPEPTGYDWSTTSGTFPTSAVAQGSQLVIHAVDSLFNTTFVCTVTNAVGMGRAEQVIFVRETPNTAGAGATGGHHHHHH
Method: as §3

[9] = target: T6, murine Nectin4 (NP_082169) (murine, UniProt Q8R007 31-508); experiment: FACS on HEK-muNectin4 cells
T6 construct: whole, on cells; also called muNectin4
T6 sequence (looked up): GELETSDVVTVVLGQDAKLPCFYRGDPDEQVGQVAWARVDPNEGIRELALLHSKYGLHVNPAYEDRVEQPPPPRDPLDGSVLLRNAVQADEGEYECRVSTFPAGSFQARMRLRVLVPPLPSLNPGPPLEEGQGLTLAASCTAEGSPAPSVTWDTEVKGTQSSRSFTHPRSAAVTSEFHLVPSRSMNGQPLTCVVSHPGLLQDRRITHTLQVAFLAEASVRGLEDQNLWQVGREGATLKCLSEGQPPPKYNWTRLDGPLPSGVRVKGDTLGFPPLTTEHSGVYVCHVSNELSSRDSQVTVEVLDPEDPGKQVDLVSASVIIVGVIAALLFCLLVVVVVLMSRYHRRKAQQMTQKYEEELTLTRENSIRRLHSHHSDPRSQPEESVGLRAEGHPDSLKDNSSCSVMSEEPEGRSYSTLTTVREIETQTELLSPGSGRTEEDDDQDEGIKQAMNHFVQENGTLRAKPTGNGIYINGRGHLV

His-tagged human NECTIN4 = target: T7, His-tagged human NECTIN4 (human, UniProt Q96NY8 32-349); experiment: SPR (BIAcore S200), antigen on CAP chip, antibody as analyte, 1:1 fit
T7 construct: Antigen of the BIAcore assay; also called antigen; recombinant NECTIN4 protein; not shown: His tag
T7 sequence: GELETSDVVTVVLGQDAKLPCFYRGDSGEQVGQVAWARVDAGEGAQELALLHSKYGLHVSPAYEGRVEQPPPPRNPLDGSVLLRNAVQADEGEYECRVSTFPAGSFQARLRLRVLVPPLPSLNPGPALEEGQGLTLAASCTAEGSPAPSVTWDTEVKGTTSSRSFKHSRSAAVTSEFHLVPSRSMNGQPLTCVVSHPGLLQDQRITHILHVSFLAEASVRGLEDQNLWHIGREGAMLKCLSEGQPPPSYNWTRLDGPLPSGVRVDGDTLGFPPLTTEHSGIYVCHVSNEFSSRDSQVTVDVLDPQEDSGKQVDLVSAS
Method: Interactions between the antibodies and the antigen were measured using a BIAcore instrument S200 from GE. Referring to the instructions provided in Biotin Capture Kit from GE Healthcare, the analytical channel and the control sample channel on CAP sensor chip were first coupled with antigen i.e. His-tagged human NECTIN4, then samples containing antibodies (diluted 3-fold from an initial concentration of 20 nM respectively and solutions of each antibody of 8 concentrations were obtained totally, and the concentration 0.741 nM was set to be repeated) were allowed to flow through both the analytical channel and the sample channel, and the photoreactions upon antibody-antigen binding were measured. Association constant Kon and dissociation constant Koff and affinity constant KD of each antibody were finally obtained by instrument software fitting (1:1 binding mode) analysis.

EC50 (ng/ml), inhibition of proliferation of BT474 cells (human Nectin-4 [1]): 16.9 ng/mL | EC50 (human Nectin-4 [2]): 75 µg/mL | Endocytosis efficiency (%) (human Nectin-4 [3]): 56%
B1: murine antibody 30J3 (antibody, V domains shown)
VH: EVQLQQSGPDLVKPGASVKISCKASGYSFTDYYMHWVKQSRGKGLEWIGRVNPNNGNTLYNQKFRGKAILTVDKSSSTAYMELRSLTSDDSAVYYCAREDRYAFAYWGQGTLVTVSA
VL: DIVLTQSPASLAVSLGQRATISCRASQSVSTSSYTYMHWYQQKPGQPPKLLIKYASNLESGVPARFIGSGSGTDFTLNIHPVEEEDTATYYCQHTWEIPYTFGGGTKLEIK
notes: Murine monoclonal antibody from hybridoma; also called mIgG 30J3
Percentage of cell killing at the highest concentration (human Nectin-4 [1]): 52.8%

EC50 (ng/ml), inhibition of proliferation of BT474 cells (human Nectin-4 [1]): 42.3 ng/mL | EC50 (human Nectin-4 [2]): 25.4 µg/mL | Endocytosis efficiency (%) (human Nectin-4 [3]): 69%
B2: murine antibody 5M21 (antibody, V domains shown)
VH: QVQLQQSGPELVKPGASVRITCKASGYTFTTYYIHWVKQRPGQGLEWIGWIYPGNVNTKYNEKFKGKATLTADKSSSTAYMQLSSLTSEDSAVYFCARGLYYFDYWGQGTTLTVSS
VL: SIVMTQTPKFLLVSAGDRLTITCKASQSVSNDVAWYQQKPGQSPKLLIYYASNRYTGVPDRFTGSGYGTDFTFTISTVQAEDLAVYFCQQDYSSPYTFGGGTKLEIK
notes: Murine monoclonal antibody from hybridoma; also called mIgG 5M21
Percentage of cell killing at the highest concentration (human Nectin-4 [1]): 33.5%

EC50 (human Nectin-4 [4]): 83.8 µg/mL
B3: murine antibody 20M12 (antibody, V domains shown)
VH: B2 VH with T21S, T31S, V56A, T58N, K63N, G99S, L100V
VL: B2 VL with I2V, L19V, Y55N, T74N
notes: Murine monoclonal antibody from hybridoma; also called mIgG 20M12

EC50 (read off the curve) [5]: ~0.1 µg/mL | EC50 (Cyno Nectin4): 2.45 to 4.06 µg/mL | EC50 (human Nectin-4 [6]): 0.946 µg/mL | binding result [8]: no binding (tested: 10 µg/ml) | EC50 [9]: 4.7 µg/mL | Kd (His-tagged human NECTIN4): 1.8 nM
B4: 42D20 hz63 (antibody, V domains shown)
VH: QVQLQESGPGLVKPSETLSLTCTVSGFSLIDYGVSWIRQPPGKGLEWIGVIWGGGKIYYNSVLKSRVTISKDNSKSQVSLKLSSVTAADTAVYYCAKQGGLLFYAMDYWGQGTLVTVSS
VL: DIVMTQSPDSLAVSLGERATINCKSSQSLLNTYSQKNYLAWYQQKPGQSPKLLIYFASTRESGVPDRFSGSGSETDFTLTISSLQAEDLAVYFCQQHYNTPFTFGAGTKLELKR
notes: Humanized
binding result [7]: no binding (tested: about 2.5 µg/ml (last point))
